According to US20100233095A1 (ADLYFE, published 2010):
pyrene = pyrene (fluorescent label); PBA = not defined here

What was measured:
[1] = molecular target: T1, Aβ42 Fiber (insoluble Aβ42 target protein fibers) (UniProt P05067 672-713); experiment: centrifugation of insoluble fibers with soluble probe, SDS-PAGE of the pellet, 40% TFE
T1 construct: domain: Aβ1-42; Insoluble fibrillar aggregate of Aβ42; also called Aβ 1-42 fiber; Aβ42 fibers
Method: Aβ42 Fiber (target protein) and peptide probe (SEQ ID NO:1) are incubated for 3 hours in the presence of increasing amounts of trifluoroethanol (TFE). The samples are centrifuged at 17,000×g for 30 minutes, and the pellets are denatured in sample buffer and analyzed by SDS-PAGE. Reference samples (Input) are shown for comparison. In this example, binding of target protein and peptide probe is clearly observed at the 40% TFE condition (compare left and right panels at 40% TFE, where the “peptide” band appears in the left panel but not the right panel).

[2] = molecular target: T2, biotinylated Aβ 42 oligomer (UniProt P05067 672-713, biotin (site not stated)); experiment: streptavidin bead capture of biotinylated oligomer, SDS-PAGE
T2 construct: domain: Aβ1-42; Captured on streptavidin-coated magnetic beads; also called biotin-labeled soluble Aβ42 target protein oligomers; synthetic biotinylated oligomer
Method: Labeled peptide probe (SEQ ID NO:1, 2 μM) and biotinylated target protein (Aβ 42 oligomers, 2 μM) are incubated in PBS for 30 minutes. The mixture is then subjected to a capture step using magnetic beads coated with streptavidin. The beads are washed with PBS to remove unbound material and the captured material is analyzed by SDS-PAGE.

[3] = molecular target: T3, Aβ42 oligomer (soluble Aβ42 target protein oligomers) (UniProt P05067 672-713); experiment: G25 size exclusion spin column, fluorescence of the eluant; 2 µM probe, 2 µM oligomer
T3 construct: domain: Aβ1-42; Soluble oligomeric aggregate; also called synthetic Aβ42 oligomer
Method: Labeled peptide probe (SEQ ID NO:1, 2 μM) and target protein (Aβ oligomers, 2 μM) are incubated together for 90 minutes in Hepes buffer (10 mM, pH 7.0) and then loaded onto a G25 size exclusion column, which has a 5000 Da molecular weight cutoff. The column is subjected to centrifugation at 735×g for 2 minutes. Eluants and column material are analyzed by a TECAN fluorimeter. This method is illustrated in FIG. 14A. Eluant also may be analyzed by SDS-PAGE (not shown).

[4] = molecular target: T3, Aβ42 oligomer (soluble Aβ42 target …); experiment: pyrene fluorescence, aqueous assay; transition from excimer to self-fluorescence
[5] = molecular target: T4, bovine serum albumin (control substrate) (bovine, UniProt P02769 25-607); experiment: pyrene monomer fluorescence of di-pyrene Peptide 22 over time, in water, substrate 0.03-0.3 uM
T4 construct: also called BSA
Method: FIG. 12 illustrates the specificity of Peptide 22 (SEQ ID NO:2) for soluble Aβ oligomers. The first two panels show the dose-dependent increase in pyrene monomer signal when Peptide 22 is incubated with soluble Aβ oligomers prepared by two different methods. The next two panels show no change in fluorescence when Peptide 22 is incubated with Aβ40 monomers and Aβ42 monomers. […] The last two panels show no change in fluorescence when Peptide 22 is incubated with control solutions (BSA or Anhydrase). […] (dotted line=0.3 uM substrate; dashed line=0.1 uM; dashed/dot line=0.03 uM; solid line=p22 alone).
Peptide 22 (100 nM) is incubated in water for 15 hours at room temperature with equimolar concentrations ([…]) of several potential A0 substrates: Aβ42 oligomer (type 1); Aβ42 oligomer (type 2); Aβ 1-42 monomer; Aβ 1-40 monomer; Aβ 1-42 fiber; Aβ 1-40 fiber; bovine serum albumin (control substrate); and carbonic anhydrase (control substrate).

[6] = molecular target: T5, streptavidin (on magnetic dynabeads) (UniProt P22629 37-163, limits assumed); experiment: streptavidin bead pull-down (protocol B) without biotinylated oligomer, SDS-PAGE
T5 construct: Capture reagent; also called streptavidin bead; magnetic streptavidin beads
Method: In an alternative assay with Peptide 22 (protocol B, illustrated in FIG. 5A), […] biotinylated Aβ 42 oligomer was incubated with pre-washed streptavidin dynabeads at room temperature for 30 minutes. The complex was then washed two times with PBS buffer, and resuspended in PBS buffer. Equal volumes of bound oligomer and 4 μM labeled peptide probe (SEQ ID NO:2) were then combined, and incubated for 30 minutes at room temperature. Unbound material was then washed away with three PBS washes, followed by the collection of the bead complexes by magnet. The complex was then resuspended in 1×LDS buffer, boiled for 10 minutes, and loaded on 10% Bis-Tris gels.

[7] = molecular target: T3, Aβ42 oligomer (soluble Aβ42 target …); experiment: pyrene fluorescence of di-pyrene Peptide 45 with 0, 0.03, 0.1 and 0.3 µM Aβ42 oligomer; free peptide 9:1

T3 sequence (P05067 672-713 limits assumed): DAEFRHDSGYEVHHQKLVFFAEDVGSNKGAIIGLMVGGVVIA
T5 sequence (P22629 37-163 limits assumed): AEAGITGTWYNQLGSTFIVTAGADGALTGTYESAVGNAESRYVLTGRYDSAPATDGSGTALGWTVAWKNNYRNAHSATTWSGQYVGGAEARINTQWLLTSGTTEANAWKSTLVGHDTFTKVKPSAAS
T1 sequence (P05067 672-713 limits assumed): as the sequence (P05067 672-713 limits assumed) above
T2 sequence (P05067 672-713 limits assumed): as above
T4 sequence (P02769 25-607 limits assumed): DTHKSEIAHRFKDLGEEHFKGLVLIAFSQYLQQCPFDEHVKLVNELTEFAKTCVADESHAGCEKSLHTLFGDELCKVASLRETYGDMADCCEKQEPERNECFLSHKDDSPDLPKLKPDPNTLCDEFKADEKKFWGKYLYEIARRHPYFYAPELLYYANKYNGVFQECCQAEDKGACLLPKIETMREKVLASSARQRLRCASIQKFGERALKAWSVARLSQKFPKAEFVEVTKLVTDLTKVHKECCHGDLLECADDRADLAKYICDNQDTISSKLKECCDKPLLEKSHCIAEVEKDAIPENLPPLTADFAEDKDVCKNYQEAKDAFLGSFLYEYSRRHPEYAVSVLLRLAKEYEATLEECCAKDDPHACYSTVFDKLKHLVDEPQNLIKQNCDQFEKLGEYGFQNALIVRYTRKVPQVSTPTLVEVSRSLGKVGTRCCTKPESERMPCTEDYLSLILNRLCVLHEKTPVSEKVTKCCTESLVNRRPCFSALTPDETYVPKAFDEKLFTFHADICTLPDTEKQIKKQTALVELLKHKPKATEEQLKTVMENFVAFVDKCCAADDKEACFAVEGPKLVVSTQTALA

B1: peptide probe of SEQ ID NO:1 (WT reference sequence, Aβ protein residues 16-35 with added C-terminal Lys) (peptide)
peptide: {PBA}-KLVFFAEDVGSNKGAIIGLMK(PBA)-NH2
modifications: reading uncertain; also: labels are the default, some assays say only 'labeled', centrifugation assay may use unlabeled peptide
notes: Synthetic probe; also called wildtype
- binding result [1]: binds
- binding result [2]: binds
- binding result [3]: binds

Binder: pyrene-KLVFFAEDVGSNKKAIIELMK(pyrene)-NH2 (also called P22 v.2; Peptide 22 var) [Peptide 22 variation 2 (SEQ ID NO:15)]
- binding result [4]: binds

B2: Peptide 22 (SEQ ID NO:2) (peptide)
peptide: pyrene-KLVFFAEDVGSNKHAIIELMK(pyrene)-NH2
notes: Designed variant of the Aβ 16-35 probe with a salt bridge; also called P22; p22
- binding result [5]: no binding (tested: 0.3 uM)
- binding result [6]: no binding (tested: 4 µM)

Binder: pyrene-KLVFFAEDVGSNKRAIIELMK(pyrene)-NH2 (also called P22 v.1; Peptide 22 var) [Peptide 22 variation 1 (SEQ ID NO:14)]
- binding result [4]: binds

Binder: pyrene-KAAAKLVFFAEDVGSNKHAIIELMK-NH2 (not fully specified (residue 25), also called P45) [Peptide 45 (SEQ ID NO:4)]
- excimer:monomer fluorescence ratio [7]: 20 ratio (x:1)
